The results in this text go back to the RNAGym collection of RNA variant scans (doi:10.1093/nar/gkz1192).

The labels stand for the following.
B1: CPEB3 Ribozyme (parent)
chain: UAACAGGGGGCCACAGCAGAAGCGUUCACGUCGCAGCCCCUGUCAGAUUCUGGUGAAUCUGCGAAUUCUGCUGUAUAUCUC

Variants of B1 are the subject of the series. Description: self-cleavage, relative activity (ratio to wild type); higher = more cleavage; in vitro, sequencing. Summed up:
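Libraries of CPEB3 self-cleaving ribozyme mutants came from rounds of error-prone PCR and carried barcodes, which DNA sequencing matched to variants. In vitro transcription used T7 RNA polymerase at 37°C for 5 hours, with a further 15 min in DNase I before EDTA stopped the reaction; the ribozymes cleaved during both steps. The RNA was reverse transcribed with template switching and sequenced on Illumina. Relative activity is the cleaved/total read fraction of a variant divided by that of the unmutated ribozyme, averaged over three batches with at least 5 reads.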
For UAACAGGGGGCCACUGCAGAAGCGUUCACGUCGCAGCCCCUGUCAGAUUCUGGUGAAUCUGCGAAUUCUGCUGUAUAUAUC [A15U C79A], the self-cleavage stood at 1.03.

In the case of UAACAGGGGGCCACAGCUGAAGCGUUCACGUCGCAGCCCCUGUCAGAUUCUGGUGAAUCUGCGGAUUCUGCUGUAUAUCUC [A18U A64G], the self-cleavage amounted to 0.31.

As for UAACAGGGGGCUACAGCAGAAGCGUUCACGUCGCAGCCCCUGUCAGAUUCUGGUGAAUCUGCGAAUUCUGCUGUAUAUCCC [C12U U80C], the self-cleavage came to 1.23.

In the case of UAACCGGGGGCCACAGCAGAAGCGUUCACGUCGCAGCCCCUGUCAGAUUCUGGUGAAUCGGCGAAUUCUGCUGUAUAUCUC [A5C U60G], the self-cleavage came to 0.67.

As to UAACAGGGGCCCACAGCAGAAGCGUUCACGUCGCAGCCCCUGUCAGAUUCUGGUGAAUCUGCGAAUUCCGCUGUAUAUCUC [G10C U69C], the self-cleavage was determined as 0.12.

For the variant GAACAGGCGGCCACAGCAGAAGCGUUCACGUCGCAGCCCCUGUCAGAUUCUGGUGAAUCUGCGAAUUCUGCUGUAUAUCUC [U1G G8C], the self-cleavage turned out to be 0.59.

Regarding UAACAGGGGUCCACAGCAGAAGCGUUCACGUCGCGGCCCCUGUCAGAUUCUGGUGAAUCUGCGAAUUCUGCUGUAUAUCUC [G10U A35G], the self-cleavage is 0.32.

Turning to UAACAGGGGGCCACAGCUGAAGCGCUCACGUCGCAGCCCCUGUCAGAUUCUGGUGAAUCUGCGAAUUCUGCUGUAUAUCUC [A18U U25C], the self-cleavage came to 0.26.

In the case of UAGCAGUGGGCCACAGCAGAAGCGUUCACGUCGCAGCCCCUGUCAGAUUCUGGUGAAUCUGCGAAUUCUGCUGUAUAUCUC [A3G G7U], the self-cleavage is 0.45.

Consider UAACUGGGGGCCACAGCAGAAGCGUUGACGUCGCAGCCCCUGUCAGAUUCUGGUGAAUCUGCGAAUUCUGCUGUAUAUCUC [A5U C27G], for which the self-cleavage was 0.21.

On to UAACAGGGGGCCACAGCAGAAGCGUUCACGUCGCAGCCCCUGUCAGAUUCUGGUGAAUCUGCGAAUCCUGCUGUAUGUCUC [U67C A77G], for which the self-cleavage was 0.3.

Turning to UAACAGGGGGCCACAGCAGAAGCGUUCACGACGCAGCCCCUGUCAGAUUCUGGUGAAUCUGCGAAUUCUGAUGUAUAUCUC [U31A C71A], the self-cleavage stood at 0.17.

Regarding UAACAGGGGGCCACAGCAGAAGCGUUCACGUCGCAGCCCCUGUCAGAUUCUGGUGAUUCUGCGAAUUCUUCUGUAUAUCUC [A57U G70U], the self-cleavage turned out to be 0.19.

UAACAGGGUGCCACAGCAGAAGCGUUCACGUCGCAGCCCCUGUCAGAUUCUGGUGAAUCAGCGAAUUCUGCUGUAUAUCUC [G9U U60A]: the self-cleavage is 0.15.

Turning to UAACAGGGGGCCACAGCAGAAGCGUUCACGUCGCAGCCCCUGUCAGAUUCUGGUGACUCUGCGAAUUCUGCUGUAUAUCCC [A57C U80C], the self-cleavage is 0.67.

In the case of UAACAAGGGGCCACAGCAGAAGCGUUCACGUCGCAGCCCCUGUCAGAUUCUGGUGAAUCUGCGAAUUCUGCGGUAUAUCUC [G6A U72G], the self-cleavage was 0.27.

Take UAACAGGGGGCCACAGCAGAAGCGUUCACGUCGCAGCCCCUGUCAGAUUCUGGUGUAUCUGCGAAUUCUGCUGUAUUUCUC [A56U A77U]: the self-cleavage stood at 0.73.

As to UAACAGGGGGCCACAGCAGAAGCGUUCAGGUCGCAGCCCCUGUCAGAUUCUGGUGAAUCUGCGAAUUCUGCUGCAUAUCUC [C29G U74C], the self-cleavage came to 0.31.

Take UAACAGGGGGCCACAGCAGAAGCGUCCACGUAGCAGCCCCUGUCAGAUUCUGGUGAAUCUGCGAAUUCUGCUGUAUAUCUC [U26C C32A]: the self-cleavage stood at 0.22.

On to UAACAGGGGGCCACAGCAGAAGCGUUCACGUCGCAGCCCCUGUCAGAUCCUGGUGAAUCUGCGAAUUCUGCUGUAUAUCGC [U49C U80G], for which the self-cleavage stood at 0.49.

For the variant UAACAGGGGGCCACAGCAGAAGCGUUCACGUCGCAGGCCCUGUCAGGUUCUGGUGAAUCUGCGAAUUCUGCUGUAUAUCUC [C37G A47G], the self-cleavage is 0.58.

As for UAACAGGGGGCCACAGCAGAAGCGUUCACGUCGCAGCCCCUGUCAGAUUCUGGUGGAUCUGCGAAUUCUGCUGUAUGUCUC [A56G A77G], the self-cleavage was 0.77.

With UAACAGGGGGCCACAGCAGAAGCGUUCACGCCGCAGCCCCUGUCAGAUUCUGGUGAAUCUGCGAAUUCUGCUGUAAAUCUC [U31C U76A], the self-cleavage is 0.77.

As for UAACAGGGGGCCACAGCAGAAGCAUUCACGUCGCAGCCCCUGUCAGAUUCUGGAGAAUCUGCGAAUUCUGCUGUAUAUCUC [G24A U54A], the self-cleavage came to 0.25.

UAACAGGGGGCCACAGCAGAAGCGUACACGUCGCAGCCCCUGUCAGAUUCUGGUGGAUCUGCGAAUUCUGCUGUAUAUCUC [U26A A56G]: the self-cleavage was found to be 0.68.

In the case of UAACGGGGGGCCACAGCAGAAGCGUUCACGUCGCAGCCCCUGUCAGAUUCUGGUGAAUCUGCGAAUUCUGCUGAAUAUCUC [A5G U74A], the self-cleavage came to 1.03.

Take UAACAGGGGGCCACAGCAGAAGCGUUCACGUCGCAGCCCCUGUCAGAUUCUGGUGAAUCAGCGCAUUCUGCUGUAUAUCUC [U60A A64C]: the self-cleavage was 0.13.

Regarding UAACAGGGGGCCACAGCAGAAGCGUUCACACCGCAGCCCCUGUCAGAUUCUGGUGAAUCUGCGAAUUCUGCUGUAUAUCUC [G30A U31C], the self-cleavage came to 0.35.

In the case of UAACAGGGGGCCACAGCAGAAGCGUUCACGUCGCAGCCCCUGUCAGGUUCUGGUGAAUCUGUGAAUUCUGCUGUAUAUCUC [A47G C62U], the self-cleavage is 0.3.

In the case of UAACAGGGGGCCACACCAGAAGCGUUCACGUCGCAGCCCCUGUCAGAUUCUGGUGAGUCUGCGAAUUCUGCUGUAUAUCUC [G16C A57G], the self-cleavage was 0.57.

With UAACAGGGGGCCACAGCAGAAGCGUUCACGUCGCAGCCCCUGUCAGAUGCUGGUGAAUCUGCGAAUUCUGCUGUGUAUCUC [U49G A75G], the self-cleavage came to 0.42.

In the case of UAACAGGGGGCCACAGCAGAAGCGUUCACGUCGCAGCACCAGUCAGAUUCUGGUGAAUCUGCGAAUUCUGCUGUAUAUCUC [C38A U41A], the self-cleavage amounted to 0.19.

Consider UAACAGGGGGCCACAGCAGAAGCGUUCACGUCGCAGCCCCUGUCAGUUUCUGGUGAAUCUGCGAAUUCUGCUGUAUAUUUC [A47U C79U], for which the self-cleavage came to 0.52.

For the variant UAACAGGGGGACACAGCAGAAGCGUUCUCGUCGCAGCCCCUGUCAGAUUCUGGUGAAUCUGCGAAUUCUGCUGUAUAUCUC [C11A A28U], the self-cleavage was 0.67.
